The text below walks through data of IntAct's records for PubMed 21893288.

The labels stand for the following.
B1: Translocated intimin receptor Tir (Escherichia coli O157:H7), Q7DB77 (parent)
chain: MPIGNLGHNPNVNNSIPPAPPLPSQTDGAGGRGQLINSTGPLGSRALFTPVRNSMADSGDNRASDVPGLPVNPMRLAASEITLNDGFEVLHDHGPLDTLNRQIGSSVFRVETQEDGKHIAVGQRNGVETSVVLSDQEYARLQSIDPEGKDKFVFTGGRGGAGHAMVTVASDITEARQRILELLEPKGTGESKGAGESKGVGELRESNSGAENTTETQTSTSTSSLRSDPKLWLALGTVATGLIGLAATGIVQALALTPEPDSPTTTDPDAAASATETATRDQLTKEAFQNPDNQKVNIDELGNAIPSGVLKDDVVANIEEQAKAAGEEAKQQAIENNAQAQKKYDEQQAKRQEELKVSSGAGYGLSGALILGGGIGVAVTAALHRKNQPVEQTTTTTTTTTTTSARTVENKPANNTPAQGNVDTPGSEDTMESRRSSMASTSSTFFDTSSIGTVQNPYADVKTSLHDSQVPTSNSNTSVQNMGNTDSVVYSTIQHPPRDTTDNGARLLGNPSAGIQSTYARLALSGGLRHDMGGLTGGSNSAVNTSNNPPAPGSHRFV
B2: BAR/IMD domain-containing adapter protein 2 (Homo sapiens), Q9UQB8-4 (parent)
chain: MSLSRSEEMHRLTENVYKTIMEQFNPSLRNFIAMGKNYEKALAGVTYAAKGYFDALVKMGELASESQGSKELGDVLFQMAEVHRQIQNQLEEMLKSFHNELLTQLEQKVELDSRYLSAALKKYQTEQRSKGDALDKCQAELKKLRKKSQGSKNPQKYSDKELQYIDAISNKQGELENYVSDGYKTALTEERRRFCFLVEKQCAVAKNSAAYHSKGKELLAQKLPLWQQACADPSKIPERAVQLMQQVASNGATLPSALSASKSNLVISDPIPGAKPLPVPPELAPFVGRMSAQESTPIMNGVTGPDGEDYSPWADRKAAQPKSLSPPQSQSKLSDSYSNTLPVRKSVTPKNSYATTENKTLPRSSSMAAGLERNGRMRVKAIFSHAAGDNSTLLSFKEGDLITLLVPEARDGWHYGESEKTKMRGWFPFSYTRVLDSDGSDRLHMSLQQGKSSSTGNLLDKDDLAIPPPDYGAASRAFPAQTASGFKQRPYSVAVPAFSQGLDDYGARSMSSGSGTLVSTV

In the assay “BAIAP2, Q9UQB8-4” the parent is B1. The settings on record: with BAIAP2, Q9UQB8-4.
Variants of B2 are the subject of assay [1]. Particulars: with tir_eco27 tir.
Assay [2] covers variants of B2. The settings on record: with tir_eco57 tir.
The variants in assay [3] derive from B2. The settings on record: with tir_eco27 tir. This is another data set of the same source.
In assay [4] the parent is B2. The settings on record: with tir_eco57 tir. The source holds these as a separate data set.
The variants in assay [5] derive from B2. Particulars: with tir_eco57 tir. The source holds these as a separate data set.

As to Y458F, the “effect of a mutation on the interaction” value in the assay with BAIAP2, Q9UQB8-4 is given as “disrupting interaction”.
For MSLSRSEEMHRLTENVYKTIMEQFNPSLRNFIAMGKNYEKALAGVTYAAKGYFDALVKMGELASESQGSKELGDVLFQMAEVHRQIQNQLEEMLKSFHNELLTQLEQAVELDSRYLSAALKKYQTEQRSKGDALDKCQAELKKLRKKSQGSKNPQKYSDKELQYIDAISNKQGELENYVSDGYKTALTEERRRFCFLVEKQCAVAKNSAAYHSKGKELLAQKLPLWQQACADPSKIPERAVQLMQQVASNGATLPSALSASKSNLVISDPIPGAKPLPVPPELAPFVGRMSAQESTPIMNGVTGPDGEDYSPWADRKAAQPKSLSPPQSQSKLSDSYSNTLPVRKSVTPKNSYATTENKTLPRSSSMAAGLERNGRMRVKAIFSHAAGDNSTLLSFKEGDLITLLVPEARDGWHYGESEKTKMRGWFPFSYTRVLDSDGSDRLHMSLQQGKSSSTGNLLDKDDLAIPPPDYGAASRAFPAQTASGFKQRPYSVAVPAFSQGLDDYGARSMSSGSGTLVSTV [K108A], the “effect of a mutation on the interaction” value was “disrupting interaction” with tir_eco27 tir, B7UM99 [1] and “disrupting interaction” with tir_eco57 tir, Q7DB77 [2].
Consider MSLSRSEEMHRLTENVYKTIMEQFNPSLRNFIAMGKNYEKALAGVTYAAKGYFDALVKMGELASESQGSKELGDVLFQMAEVHRQIQNQLEEMLKSFHNELLTQLEQAVELDSRYLSAALKKYQTEQRSKGDALDKCQAELKKLRKKSQGSKNPQKYSDKELQYIDAISNKQGELENYVSDGYKTALTEERRRFCALVEKQCAVAKNSAAYHSKGKELLAQKLPLWQQACADPSKIPERAVQLMQQVASNGATLPSALSASKSNLVISDPIPGAKPLPVPPELAPFVGRMSAQESTPIMNGVTGPDGEDYSPWADRKAAQPKSLSPPQSQSKLSDSYSNTLPVRKSVTPKNSYATTENKTLPRSSSMAAGLERNGRMRVKAIFSHAAGDNSTLLSFKEGDLITLLVPEARDGWHYGESEKTKMRGWFPFSYTRVLDSDGSDRLHMSLQQGKSSSTGNLLDKDDLAIPPPDYGAASRAFPAQTASGFKQRPYSVAVPAFSQGLDDYGARSMSSGSGTLVSTV [K108A;F196A], for which the “effect of a mutation on the interaction” value with tir_eco27 tir, B7UM99 [3] is “disrupting interaction”; in the assay with tir_eco57 tir, Q7DB77 [4] it was “disrupting interaction”.
As to MSLSRSEEMHRLTENVYKTIMEQFNPSLRNFIAMGKNYEKALAGVTYAAKGYFDALVKMGELASESQGSKELGDVLFQMAEVHRQIQNQLEEMLKSFHNELLTQLEQKVELDSRYLSAALKKYQTEQRSKGDALDKCQAELKKLRKKSQGSKNPQKYSDKELQYIDAISNKQGELENYVSDGYKTALTEERRRFCALVEKQCAVAKNSAAYHSKGKELLAQKLPLWQQACADPSKIPERAVQLMQQVASNGATLPSALSASKSNLVISDPIPGAKPLPVPPELAPFVGRMSAQESTPIMNGVTGPDGEDYSPWADRKAAQPKSLSPPQSQSKLSDSYSNTLPVRKSVTPKNSYATTENKTLPRSSSMAAGLERNGRMRVKAIFSHAAGDNSTLLSFKEGDLITLLVPEARDGWHYGESEKTKMRGWFPFSYTRVLDSDGSDRLHMSLQQGKSSSTGNLLDKDDLAIPPPDYGAASRAFPAQTASGFKQRPYSVAVPAFSQGLDDYGARSMSSGSGTLVSTV [F196A], the “effect of a mutation on the interaction” value is reported as “disrupting interaction” with tir_eco27 tir, B7UM99 [1]; “disrupting interaction” in the assay with tir_eco57 tir, Q7DB77 [2]; “decreasing interaction” in the assay with tir_eco27 tir, B7UM99 [3]; “decreasing interaction” with tir_eco57 tir, Q7DB77 [5].
As to MSLSRSEEMHRLTENVYKTIMEQFNPSERNFIAMGKNYEKALAGVTYAAKGYFDALVKMGELASESQGSKELGDVLFQMAEVHRQIQNQLEEMLKSFHNELLTQLEQKVELDSRYLSAALKKYQTEQRSKGDALDKCQAELKKLRKKSQGSKNPQKYSDKELQYIDAISNKQGELENYVSDGYKTALTEERRRFCFLVEKQCAVAKNSAAYHSKGKELLAQKLPLWQQACADPSKIPERAVQLMQQVASNGATLPSALSASKSNLVISDPIPGAKPLPVPPELAPFVGRMSAQESTPIMNGVTGPDGEDYSPWADRKAAQPKSLSPPQSQSKLSDSYSNTLPVRKSVTPKNSYATTENKTLPRSSSMAAGLERNGRMRVKAIFSHAAGDNSTLLSFKEGDLITLLVPEARDGWHYGESEKTKMRGWFPFSYTRVLDSDGSDRLHMSLQQGKSSSTGNLLDKDDLAIPPPDYGAASRAFPAQTASGFKQRPYSVAVPAFSQGLDDYGARSMSSGSGTLVSTV [L28E], the “effect of a mutation on the interaction” value with tir_eco27 tir, B7UM99 [3] is “disrupting interaction”; in the assay with tir_eco57 tir, Q7DB77 [5], “disrupting interaction”.
As for MSLSRSEEMHRLTENVYKTIMEQFNPSLRNFIAMGKNYEKALAGVTYAAKGYFDALVKMGELASESQGSKELGDVLFQMAEVHRQIQNQLEEMLKSFHNELLTQLEQKVELDSRYLSAALKKYQTEQRSKGDALDKCQAELKKLRKKSQGSKNPQKYSDKELQYIDAISNKQGELENYVSDGYKTALTEERRSFCFLVEKQCAVAKNSAAYHSKGKELLAQKLPLWQQACADPSKIPERAVQLMQQVASNGATLPSALSASKSNLVISDPIPGAKPLPVPPELAPFVGRMSAQESTPIMNGVTGPDGEDYSPWADRKAAQPKSLSPPQSQSKLSDSYSNTLPVRKSVTPKNSYATTENKTLPRSSSMAAGLERNGRMRVKAIFSHAAGDNSTLLSFKEGDLITLLVPEARDGWHYGESEKTKMRGWFPFSYTRVLDSDGSDRLHMSLQQGKSSSTGNLLDKDDLAIPPPDYGAASRAFPAQTASGFKQRPYSVAVPAFSQGLDDYGARSMSSGSGTLVSTV [R193S], the “effect of a mutation on the interaction” value in the assay with tir_eco27 tir, B7UM99 [3] was “disrupting interaction”; in the assay with tir_eco57 tir, Q7DB77 [5], “disrupting interaction”.
Regarding MSLSRSEEMHRLTENVYKTIMEQFNPSLRNFIAMGKNYEKALAGVTYAAKGYFDALVKMGELASESQGSKELGDVLFQMAEVHRQIQNQLEEMLKSFHNELLTQLEQAVELDSRYLSAALKKYQTEQRSKGDALDKCQAELKKLRKKSQGSKNPQKYSDKELQYIDAISNKQGELENYVSDGYKTALTEERRSFCFLVEKQCAVAKNSAAYHSKGKELLAQKLPLWQQACADPSKIPERAVQLMQQVASNGATLPSALSASKSNLVISDPIPGAKPLPVPPELAPFVGRMSAQESTPIMNGVTGPDGEDYSPWADRKAAQPKSLSPPQSQSKLSDSYSNTLPVRKSVTPKNSYATTENKTLPRSSSMAAGLERNGRMRVKAIFSHAAGDNSTLLSFKEGDLITLLVPEARDGWHYGESEKTKMRGWFPFSYTRVLDSDGSDRLHMSLQQGKSSSTGNLLDKDDLAIPPPDYGAASRAFPAQTASGFKQRPYSVAVPAFSQGLDDYGARSMSSGSGTLVSTV [K108A;R193S], the “effect of a mutation on the interaction” value is “disrupting interaction” with tir_eco27 tir, B7UM99 [3] and “disrupting interaction” with tir_eco57 tir, Q7DB77 [4].
